Experimental data published in article PMC4835091, “Characterization of the FtsZ C-Terminal Variable (CTV) Region in Z-Ring Assembly and Interaction with the Z-Ring Stabilizer ZapD in E. coli Cytokinesis” (PLoS ONE, 2016).

How the values were obtained:
Assay in all cases: co-sedimentation; FtsZ or CTV mutant 5 μM with ZapD 1 or 5 μM in 50 mM K-MOPS pH 6.5, 50 mM KCl, 2.5 mM MgCl2, 3 μM BSA, 1 mM GTP, room temperature; TLA100.2, 80,000 rpm, 10 min; ZapD in the pellet by SDS-PAGE
Details in all cases: both partners purified
FtsZ(QQQQ) (purified) = target: T1, FtsZ(QQQQ) (purified) (E. coli, UniProt P0A9A6 1-383, CTV KQAD replaced by QQQQ)
T1 construct: FtsZ of E. coli with the native CTV KQAD replaced by QQQQ (net-neutral); pLT1, pET-21b(+); also called net-neutral CTV mutant; source: E. coli C41(DE3), purified (25% saturated ammonium sulfate cut)
T1 sequence (looked up): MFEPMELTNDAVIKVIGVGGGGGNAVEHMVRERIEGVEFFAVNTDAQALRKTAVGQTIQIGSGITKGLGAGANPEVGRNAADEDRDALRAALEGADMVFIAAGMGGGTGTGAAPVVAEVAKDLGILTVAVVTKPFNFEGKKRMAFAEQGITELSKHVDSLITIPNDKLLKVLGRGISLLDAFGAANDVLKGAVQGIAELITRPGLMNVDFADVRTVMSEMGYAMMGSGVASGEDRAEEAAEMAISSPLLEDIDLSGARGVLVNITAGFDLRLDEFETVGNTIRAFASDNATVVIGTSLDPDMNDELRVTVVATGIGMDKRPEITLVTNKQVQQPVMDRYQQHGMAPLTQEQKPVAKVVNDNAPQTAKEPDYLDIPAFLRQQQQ

FtsZ(DQAK) (purified) = target: T2, FtsZ(DQAK) (purified) (E. coli, UniProt P0A9A6 1-383, CTV KQAD replaced by DQAK)
T2 construct: FtsZ of E. coli with the native CTV KQAD replaced by DQAK (net-neutral); pKHH9, pET-21b(+); also called net-neutral CTV mutant; source: E. coli C41(DE3), purified (25% saturated ammonium sulfate cut)
T2 sequence (looked up): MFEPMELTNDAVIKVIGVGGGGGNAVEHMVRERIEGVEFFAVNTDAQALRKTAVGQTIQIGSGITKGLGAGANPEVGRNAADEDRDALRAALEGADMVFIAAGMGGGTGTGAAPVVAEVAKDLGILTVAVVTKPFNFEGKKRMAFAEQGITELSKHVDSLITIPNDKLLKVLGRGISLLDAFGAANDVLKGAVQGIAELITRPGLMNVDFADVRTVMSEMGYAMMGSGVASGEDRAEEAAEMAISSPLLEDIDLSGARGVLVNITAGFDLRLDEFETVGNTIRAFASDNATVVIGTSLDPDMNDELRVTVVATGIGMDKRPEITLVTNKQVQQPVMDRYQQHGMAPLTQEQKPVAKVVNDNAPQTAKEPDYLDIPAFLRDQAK

FtsZ(KQAK) (purified) = target: T3, FtsZ(KQAK) (purified) (E. coli, UniProt P0A9A6 1-383, CTV KQAD replaced by KQAK)
T3 construct: FtsZ of E. coli with the native CTV KQAD replaced by KQAK (net-positive); pKHH8, pET-21b(+); also called net-positive CTV mutant; source: E. coli C41(DE3), purified (25% saturated ammonium sulfate cut)
T3 sequence (looked up): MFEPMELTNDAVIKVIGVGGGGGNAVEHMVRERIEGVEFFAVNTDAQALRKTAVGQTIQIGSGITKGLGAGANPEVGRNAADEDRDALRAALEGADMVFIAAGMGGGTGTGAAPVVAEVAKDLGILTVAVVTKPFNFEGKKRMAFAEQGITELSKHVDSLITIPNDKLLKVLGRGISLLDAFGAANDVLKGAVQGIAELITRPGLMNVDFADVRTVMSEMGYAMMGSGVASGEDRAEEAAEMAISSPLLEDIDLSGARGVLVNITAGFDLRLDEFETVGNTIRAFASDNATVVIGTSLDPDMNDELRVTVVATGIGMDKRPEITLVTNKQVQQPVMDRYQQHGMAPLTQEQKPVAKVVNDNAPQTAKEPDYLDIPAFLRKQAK

FtsZ(RQAR) (purified) = target: T4, FtsZ(RQAR) (purified) (E. coli, UniProt P0A9A6 1-383, CTV KQAD replaced by RQAR)
T4 construct: FtsZ of E. coli with the native CTV KQAD replaced by RQAR (net-positive); pAM3, pET-21b(+); also called net-positive CTV mutant; source: E. coli C41(DE3), purified (25% saturated ammonium sulfate cut)
T4 sequence (looked up): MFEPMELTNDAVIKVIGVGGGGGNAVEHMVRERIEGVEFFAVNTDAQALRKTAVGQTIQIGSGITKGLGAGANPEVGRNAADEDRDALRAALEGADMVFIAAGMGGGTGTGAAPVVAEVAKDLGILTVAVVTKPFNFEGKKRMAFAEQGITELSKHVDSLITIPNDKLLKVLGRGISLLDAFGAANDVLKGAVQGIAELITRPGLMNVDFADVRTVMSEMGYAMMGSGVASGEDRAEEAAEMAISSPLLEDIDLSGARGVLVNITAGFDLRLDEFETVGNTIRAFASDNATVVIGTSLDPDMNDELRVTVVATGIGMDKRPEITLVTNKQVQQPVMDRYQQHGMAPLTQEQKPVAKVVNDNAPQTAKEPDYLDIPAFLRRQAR

Measured: binding result

B1: ZapD (purified) (natural protein, E. coli, UniProt P36680 1-247, looked up)
chain: MQTQVLFEHPLNEKMRTWLRIEFLIQQLTVNLPIVDHAGALHFFRNVSELLDVFERGEVRTELLKELDRQQRKLQTWIGVPGVDQSRIEALIQQLKAAGSVLISAPRIGQFLREDRLIALVRQRLSIPGGCCSFDLPTLHIWLHLPQAQRDSQVETWIASLNPLTQALTMVLDLIRQSAPFRKQTSLNGFYQDNGGDADLLRLNLSLDSQLYPQISGHKSRFAIRFMPLDTENGQVPERLDFELACC
notes: ZapD, Z-ring stabilizer of E. coli; also called purified ZapD; pET28b-His10-Smt3-ZapD
binds: FtsZ(QQQQ) (purified) | FtsZ(DQAK) (purified) | FtsZ(KQAK) (purified) | FtsZ(RQAR) (purified)
